Assay results taken from the supplement of paper PMC9170038.

Tested on: MS2 coat protein
Test: apparent KD of MS2 coat protein; designed switch direction (-1 OFF switch, 1 ON switch): -1; higher = weaker reporter binding
Method in brief: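 RNA switches sharing common flanks were transcribed by stalled E. coli RNA polymerase on Illumina chips. A doubling series of SNAP-549-labelled MS2 coat protein, from 0.7 or 1.5 nM to 3 µM, was applied in Tris-HCl pH 7.5 buffer with KCl, MgCl2, BSA, DTT, tRNA and Tween-20. Each step lasted 0.8–1.5 h at the bottom of the series and 10–20 min at the top. Normalised cluster fluorescence was curve-fitted, giving apparent KD as the per-design median over clusters.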

[1] = input ligand: microRNA oligo, concentration not stated
[2] = Eterna round: R95, input ligand: FMN 200 uM
[3] = Eterna round: R95, input ligand: microRNA oligo, concentration not stated
[4] = Eterna round: R95, input ligand: none

| Sequence | apparent KD of MS2 coat protein (input ligand: FMN 200 uM) [nM] | apparent KD of MS2 coat protein [1] [nM] | apparent KD of MS2 coat protein (input ligand: none) [nM] | apparent KD of MS2 coat protein [2] [nM] | apparent KD of MS2 coat protein [3] [nM] | apparent KD of MS2 coat protein [4] [nM] |
| --- | --- | --- | --- | --- | --- | --- |
| AAAAAAAGACAAGAGGAGAUUCGUCUUAAAAAUCCUCAAACAUGAGGAUCACCCAUGUAAAAUGAUCGAAAGAUCAA [Mat - Sensor v2 - ver2 - JL mod - D39] (Eterna round: R96, puzzle: Sensor v2, turn-off variant 2) | 25.7 | 24 | 29.2 |  |  |  |
| AAAAAACAAGGAUAUACGAAGGAGGGUUGUCUUAAUUUUUGACAUGAGGAUCACCCAUGUAGAAGGUGUUAAAA [JR_Exclusion2_Sub012] (puzzle: Exclusion 2) |  |  |  | 146 | 186 | 188 |
| AAAAAACAAGGAUAUACGCACGAGGAUUGUCUUAAUUUUUGACAUGAGGAUCACCCAUGUAGAAGGUGUUAAAA [JR_Exclusion2_Sub014] (puzzle: Exclusion 2) |  |  |  |  | 76.5 |  |
| AAAAAACAAGGAUAUACGUAUGAGGAUUGUCUUAAUUUUUGACAUGAGGAUCACCCAUGUAGAAGGUGUUAAAA [JR_Exclusion2_Sub015] (puzzle: Exclusion 2) |  |  |  |  | 94.9 |  |
| AAAAAAUACAUGAGGAUCACCCAUGUAGAGUGGGAAGAGAGAUAGGAUAUGAUGUGAGAAUCAUAUCAGAAGGAUCGAGACUCA [AK ExNG3-2.2] (Eterna round: R96, puzzle: Exclusion NG 3) | 143 | 110 | 139 |  |  |  |
| AAAAACAAGCCCAUGCUCGUCUUAAGAUCGAAAGAUCAAACAUGAGGAUCACCCAUGUGCGAGCAUGGGUGAUCCUC [Sensor v2, turn off variant 2 (JL Turnoff v2 4 - MOD3)] (Eterna round: R96, puzzle: Sensor v2, turn-off variant 2) | 21.9 | 10.2 | 16.6 |  |  |  |
| AAAAAGAGAGGAUAUACAUGAGGAUCACCCAUGUGAGGGCACCGCGGGCGCGGGACCCGUAGAAGGCUCAAAAA [Exc;s3-I] (puzzle: Exclusion 3) |  |  |  | 16.5 | 14.7 | 20.5 |
| AAAAAGGCAGGAUAUACGAGUCAAAGAAAAGACAAAAGGAGACAUGAGGAUCACCCAUGUAGAAGGGCCAAAAA [Fiskers exclusion D2 62% 5] (Eterna round: R96, puzzle: Exclusion 2) | 85.2 | 20.6 | 25.3 |  |  |  |
| AAAAAGGGAGGAUAUACAUGAGGAUCACCCAUGUAGCAGACGAAAAAGAGUCUGUAAUGUAGAAGGCCCAAAAA [65%, Moding Exclusion3-cac2, 4] (Eterna round: R96, puzzle: Exclusion 3) | 50.9 | 13.1 | 17.5 |  |  |  |
| AAAAAGUUAGGAUAUACAUGAGGAUCACCCAUGUACAUAUAUGGAGAAAAAAACAGUAGUAGAAGGGACAAAAA [EX2 Malc#12] (Eterna round: R96, puzzle: Exclusion 3) | 28.8 | 23.3 | 29.2 |  |  |  |
| AAAACCAGAGGAUAUGCGCAUAGAUAAGACUUUGUUUCUUAACAUGAGGAUCACCCAUGUAGAAGGCUGUAAAA [Ex2 #71] (Eterna round: R97, puzzle: Exclusion 2) | 20.6 |  | 22 |  |  |  |
| AAAACGGCAGGAUAUACAUGAGGAUCACCCAUGUGAAAUAAAAUAAAAUAAAAUAAAAGUAGAAGGGCCAAAAA [Exclusion 3 #3] (puzzle: Exclusion 3) |  |  |  | 40.4 | 40.7 | 58.6 |
| AAAACUGCCUAGGAUAUCUGAAGCCGAGGUAGAAGAGAAGGAGGCACAUGAGGAUCACCCAUGUCCCUCAUAAA [EX6 A.8] (Eterna round: R97, puzzle: Exclusion 6) | 16.8 |  | 14.3 |  |  |  |
| AAAACUGCUCAGGAUAUUUGUGUGUCAGGGCAUAAAGAAGGGAGCACAUGAGGAUCACCCAUGUGUUGGGUUCC [Zasozaer] (puzzle: Exclusion 6) |  |  |  |  | 68.7 |  |
| AAAACUUUGAGAGGAUAUCUGAAAGGAAGUGUAAGAGAAGGCUCAGAGGACAUGAGGAUCACCCAUGUACGUCAUGGGCUCCGA [PowerStrip EXNG 1.15] (Eterna round: R96, puzzle: Exclusion NG 1) | 49.8 | 39.6 | 111 |  |  |  |
| AAAAGAAGUGUUAGGAUAUGUGGAAGUAGAAAGACACAGAAGGAACAUGAGGAUCACCCAUGUGGCCUAAGAAC [Bibire] (puzzle: Brourd's mod of Exclusion 4) |  |  |  | 15.4 | 10.5 | 11.6 |
| AAAAGGCAAGCAUGAUCCCACAUGAGGAUCACCCAUGUGUUCGUCUUAUAGGCUGCUGAGGCUUUUGCCUCGGUGGC [LRO Sensor-off var1-05 loose mod of D91 from Mat747] (Eterna round: R97, puzzle: Sensor, turn-off variant 1) | 587 |  | 728 |  |  |  |
| AAAAGGCAGGGAGGAUAUGCUUACCUGGGUCGUCUUCAAACAUGAGGAUCACCCAUGUAGUCGACGCAGAAGGCCCUCAAAGCC [Mat - Exclusion NG 2 - Mod of JL - D58] (Eterna round: R96, puzzle: Exclusion NG 2) | 39.6 | 21.2 | 22.7 |  |  |  |
| AAAAGGCGAGGAUAUCCGGGCACGGACAUGAGGAUCACCCAUGUGACCUCGCCCGGCGGAGGAGAAGGCGCCGAAG [Biestein] (Eterna round: R97, puzzle: Exclusion 5) | 368 |  | 158 |  |  |  |
| AAAAGGCGUGUGAGGAUAUCCGGAGACGUGAAAAGGGAGAAGGCACAUGAGGAUCACCCAUGUGGAGUGUAAAG [Uscece] (puzzle: Brourd's mod of Exclusion 4) |  |  |  | 38.2 | 18.6 | 27.5 |
| AAAAGGUCAGGAUAUUCAAGAAAAGAAAAGAAAAGAAAAGAGAAGAAGGGACAUGAGGAUCACCCAUGUAAAAG [Default title] (puzzle: Exclusion 4) |  |  |  | 24.9 | 18.9 | 13.5 |
| AAAAGUCUUUAGGAUAUGUGCGAUUAAUAUCGUGCAGAAGGAAGGACAUGAGGAUCACCCAUGUUGAAGACAAC [Omei Ex6 A19] (Eterna round: R97, puzzle: Exclusion 6) | 51.1 |  | 22.1 |  |  |  |
| AAAAGUUGGUAAGGAUAUCCCACAUUAUUCUGACCCGUGCAAGCUACAUGAGGAUCACCCAUGUGGGAGAAGGUGCGUUAAAGA [Zatiisor] (Eterna round: R96, puzzle: Exclusion NG 2) | 209 | 55.1 | 78.8 |  |  |  |
| AAAAUACAUGAGGAUCACCCAUGUCAGGAUAUGCUAAAAAAAAAAUUAAAAAAAAAAUGUAGAAGGGACUAAAA [Exclusion Z2] (Eterna round: R96, puzzle: Exclusion 1) |  | 71.6 |  |  |  |  |
| AAAAUACGCACAGGAUAUCAAUACAUGAGGAUCACCCAUGUAACAUGGACUGGUCAGCAGAAAAGUGAGAAGGGUGCUGACGAC [Beraon] (Eterna round: R96, puzzle: Exclusion NG 2) | 187 | 31.6 | 45.6 |  |  |  |
| AAAAUACGCACAGGAUAUCGAUACAUGAGGAUCACCCAUGUAACAUGGACUGGUCAGCAGAAAAGCGAGAAGGGUGCUGACGAC [Lediaroren] (Eterna round: R96, puzzle: Exclusion NG 2) | 334 | 90.3 | 55.6 |  |  |  |
| AAAAUGUAAGGAUAUCGUUCACUUGACAAAAGUCAAGUGAACGAGAAGGUACAUGAGGAUCACCCAUGUAUGGG [-29.9, -29 kcal, A 38%] (Eterna round: R97, puzzle: Exclusion 4) | 131 |  | 1340 |  |  |  |
| AAAAUGUCAGGAUAUGUGAAAGAAAAGAAAAGAAAAGAAAAACAGAAGGGACAUGAGGAUCACCCAUGUAAGAA [Exclusion 4 #3] (puzzle: Exclusion 4) |  |  |  | 21.6 | 25.2 | 27.1 |
| AAACAAGCGUGAGGCUCGUCUUAAAAAGCCUCAUGAAAAACAUGAGGAUCACCCAUGUAAAAUGAUCGAAAGAUCAA [JL turnoff v2 29] (Eterna round: R96, puzzle: Sensor v2, turn-off variant 2) | 15.5 | 43.4 | 17.6 |  |  |  |
